Data on two molecules can be found in US20120321641A1 (TORAY INDUSTRIES, published 2012).

Test [1] deals with T1, human CAPRIN-1 protein on human cancer cells and in human cancer tissues (human, UniProt Q14444 2-709).
T1 construct: whole, on cells; Endogenous protein of the cell lines and tissue arrays; also called CAPRIN-1 protein expressed on the cell membrane surfaces of human cancer cell lines
T1 sequence (looked up): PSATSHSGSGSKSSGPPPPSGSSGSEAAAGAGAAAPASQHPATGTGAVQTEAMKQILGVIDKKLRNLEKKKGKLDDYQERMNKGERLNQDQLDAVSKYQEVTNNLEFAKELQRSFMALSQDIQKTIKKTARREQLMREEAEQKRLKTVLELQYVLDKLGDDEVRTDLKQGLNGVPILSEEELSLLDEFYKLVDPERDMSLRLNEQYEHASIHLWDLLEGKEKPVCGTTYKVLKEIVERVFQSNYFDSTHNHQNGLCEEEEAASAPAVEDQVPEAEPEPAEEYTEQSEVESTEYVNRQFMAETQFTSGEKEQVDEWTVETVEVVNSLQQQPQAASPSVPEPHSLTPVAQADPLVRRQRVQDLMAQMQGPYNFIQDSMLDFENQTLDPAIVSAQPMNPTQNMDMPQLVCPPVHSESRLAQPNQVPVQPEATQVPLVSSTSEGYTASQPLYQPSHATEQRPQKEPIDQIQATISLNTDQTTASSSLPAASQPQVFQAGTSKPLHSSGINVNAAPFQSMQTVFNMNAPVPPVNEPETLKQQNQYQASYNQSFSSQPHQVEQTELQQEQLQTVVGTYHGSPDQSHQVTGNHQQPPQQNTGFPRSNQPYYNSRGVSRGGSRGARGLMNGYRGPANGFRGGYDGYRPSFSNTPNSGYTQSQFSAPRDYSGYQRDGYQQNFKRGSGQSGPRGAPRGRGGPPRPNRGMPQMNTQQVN
In words: immunohistochemical staining of paraffin-embedded human cancer tissue arrays. The procedure:
After 3 hours of treatment of the human breast cancer tissue array at 60° C., the array was placed in a staining bottle filled with xylene, followed by xylene replacement being repeated three times every 5 minutes. Next, a similar procedure was performed with ethanol and PBS-T instead of xylene. The human breast cancer tissue array was placed in a staining bottle filled with 10 mM citrate buffer (pH 6.0) containing 0.05% Tween20. After 5 minutes of treatment at 125° C., the array was left to stand at room temperature for 40 minutes or more. Excess water around the sections was removed with Kimwipes, the sections were circled with a DAKOPEN, and Peroxidase Block (DAKO) was added dropwise in appropriate amounts. After left to stand at room temperature for 5 minutes, the array was placed in a staining bottle filled with PBS-T, followed by PBS-T replacement being repeated three times every 5 minutes. As a blocking solution, a PBS-T solution containing 10% FBS was placed on the array, and then the array was left to stand in a moist chamber at room temperature for 1 hour. Next, a solution of the monoclonal antibody #1 of 10 μg/ml adjusted with a PBS-T solution containing 5% FBS, which reacts with cancer cell surfaces and had been prepared in Example 4, was placed on, and the array was left to stand overnight in a moist chamber at 4° C. […]

The target of test [2] is T2, recombinant human CAPRIN-1 protein having the amino acid sequence represented by SEQ ID NO: 2 (human, UniProt Q14444 2-709).
T2 construct: The His-tag was cleaved off with enterokinase; also called antigen protein (human CAPRIN-1)
T2 sequence: T1 sequence (looked up)
In words: ELISA; CAPRIN-1 protein coated at 1 ug/ml, hybridoma culture supernatant, HRP anti-chicken IgY. As to the method:
The thus selected hybridomas were added to a 96-well plate at 0.5 cells per well and then cultured. After 1 week, hybridomas that had formed single colonies in wells were observed. These cells in the wells were further cultured, and then hybridomas were selected using as a marker the binding affinity of antibodies produced by the cloned hybridomas to the CAPRIN-1 protein. The CAPRIN-1 protein solution (1 μg/ml) prepared in Example 2 was added to a 96-well plate at 100 μl per well, and then left to stand at 4° C. for 18 hours. Each well was washed with PBS-T three times, 400 μl of a 0.5% BSA solution was added per well, and then the resultant was left to stand at room temperature for 3 hours. The solution was removed, and then the wells were washed three times with 400 μl of PBS-T per well. 100 μl of each culture supernatant of the above-obtained hybridomas was added per well, and then the plate was left to stand at room temperature for 2 hours. After washing each well three times with PBS-T, 100 μl of an HRP-labeled anti-chicken IgY antibody (SIGMA) diluted 5000-fold with PBS was added per well and then left to stand at room temperature for 1 hour. […] After color development, 100 μl of 1N sulfuric acid was added per well to stop the reaction and then absorbances at 450 nm and 595 nm were measured using an absorption spectrometer. […]

The target in test [3] is T1, human CAPRIN-1 protein on human cancer …. In words: flow cytometry on MDA-MB-231V human breast cancer cells, hybridoma culture supernatant, FITC anti-chicken IgG. The procedure:
Next, of those monoclonal antibodies, antibodies reactive with the cell surfaces of breast cancer cells expressing CAPRIN-1 were selected. Specifically, 5×10⁵ cells of the human breast cancer cell line MDA-MB-231V were subjected to centrifugation in a 1.5-ml microcentrifuge tube, and 100 μl of the culture supernatant of each of the above hybridomas was added to the tube, and then the tube was left to stand on ice for 1 hour. After washing with PBS, an FITC-labeled goat anti-chicken IgG (H+L) antibody (SouthernBiotech) diluted 30-fold with PBS containing 0.1% FBS was added, and then the resultant was left to stand on ice for 1 hour. After washing with PBS, fluorescence intensity was measured using a FACS caliber (Becton, Dickinson and Company). Meanwhile, procedures similar to the above were performed for medium for culturing hybridomas, so that a control sample was obtained.
In general terms: Flow cytometry measures light scatter and fluorescence of single cells or particles in a stream.

B1: monoclonal antibody #1 prepared in Example 4 (antibody, V domains shown)
VH: AVTLDESGGGLQTPGGGLSLVCKASGFTFSSFDMGWVRQAPGKGLEFVAQINDAGSRTWYATAVKGRATISRDNGQTTVRLQLNNLRAEDTGTYYCTRGSGYVGAGAIDAWGHGTEVIVS
VL: AALTQPSSVSANPGETVKITCSGGSGYYGWYQQQKSPGSAPVTVIYQNDKRPSDIPSRFSGSGSGSTNTLTITGVQAEDEAVYFCGRYDSTDSGIFGAGTTLTVL
notes: also called anti-CAPRIN-1 monoclonal antibody
Regarding B1, the binding result in test [1] is recorded as “binds”.

B2: chicken monoclonal antibody #1 (antibody, V domains shown)
VH: B1 VH
VL: B1 VL
notes: Chicken hybridoma antibody tested as culture supernatant and detected with anti-chicken IgY/IgG secondary antibodies; the chicken constant regions are not; also called anti-CAPRIN-1 monoclonal antibody #1
With B2, the binding result in test [2] and in test [3] was “binds” in each case.
